Measurements published in article PMC3017781, “Structure-function relationships of wheat flavone O-methyltransferase: Homology modeling and site-directed mutagenesis” (BMC Plant Biology, 2010).

What was measured:
purified protein = substrate: O=c1cc(-c2cc(O)c(O)c(O)c2)oc2cc(O)cc(O)c12; assay: purified protein
[1] = substrate: COc1cc(/C=C/C(=O)O)cc(O)c1O; assay: radiometric methyltransferase assay with [3H]SAM, Lineweaver-Burk; assay type: biochemical, Triticum aestivum; settings: co-substrate SAM (AdoMet) 1 mM, 30°C, 15 min
Description: radiometric methyltransferase assay with [3H]SAM, Lineweaver-Burk on TaOMT2

[2] = co-substrate SAM (AdoMet) 1 mM, 30°C, 15 min

| Protein | Km (purified protein; co-substrate SAM, saturating) | Km (purified protein; [2]) | Km [1] |
| --- | --- | --- | --- |
| TaOMT2 (Triticum aestivum; W259A) (protein) MGSIAAGADEDACMYALQLVSSSILPMTLKNAIELGLLETLMAAGGKFLTPAEVAAKLPSAANPEAPDMVDRMLRLLASYNVVSCRTEDGKDGRLSRRYGAAPVCKYLTPNEDGVSMSALALMNQDKVLMESWYYLKDAVLDGGIPFNKAYGMSAFEYHGTDPRFNRVFNEGMKNHSIIITKKLLESYKGFEGLGTLVDVGGGVGATVAAITAHYPTIKGINFDLPHVISEAPPFPGVTHVGGDMFQKVPSGDAILMKAILHDWSDEHCATLLKNCYDALPAHGKVVLVECILPVNPEATPKAQGVFHVDMIMLAHNPGGRERYEREFEALAKGAGFAAMKTTYIYANAWAIEFTK | 131.0 µM | – | – |
| TaOMT2 (Triticum aestivum; W259Y) (protein) MGSIAAGADEDACMYALQLVSSSILPMTLKNAIELGLLETLMAAGGKFLTPAEVAAKLPSAANPEAPDMVDRMLRLLASYNVVSCRTEDGKDGRLSRRYGAAPVCKYLTPNEDGVSMSALALMNQDKVLMESWYYLKDAVLDGGIPFNKAYGMSAFEYHGTDPRFNRVFNEGMKNHSIIITKKLLESYKGFEGLGTLVDVGGGVGATVAAITAHYPTIKGINFDLPHVISEAPPFPGVTHVGGDMFQKVPSGDAILMKYILHDWSDEHCATLLKNCYDALPAHGKVVLVECILPVNPEATPKAQGVFHVDMIMLAHNPGGRERYEREFEALAKGAGFAAMKTTYIYANAWAIEFTK | 170.1 µM | – | – |
| TaOMT2 (Triticum aestivum; E322I) (protein) MGSIAAGADEDACMYALQLVSSSILPMTLKNAIELGLLETLMAAGGKFLTPAEVAAKLPSAANPEAPDMVDRMLRLLASYNVVSCRTEDGKDGRLSRRYGAAPVCKYLTPNEDGVSMSALALMNQDKVLMESWYYLKDAVLDGGIPFNKAYGMSAFEYHGTDPRFNRVFNEGMKNHSIIITKKLLESYKGFEGLGTLVDVGGGVGATVAAITAHYPTIKGINFDLPHVISEAPPFPGVTHVGGDMFQKVPSGDAILMKWILHDWSDEHCATLLKNCYDALPAHGKVVLVECILPVNPEATPKAQGVFHVDMIMLAHNPGGRIRYEREFEALAKGAGFAAMKTTYIYANAWAIEFTK | 193.17 µM | – | – |
| TaOMT2 (Triticum aestivum; G305S) (protein) MGSIAAGADEDACMYALQLVSSSILPMTLKNAIELGLLETLMAAGGKFLTPAEVAAKLPSAANPEAPDMVDRMLRLLASYNVVSCRTEDGKDGRLSRRYGAAPVCKYLTPNEDGVSMSALALMNQDKVLMESWYYLKDAVLDGGIPFNKAYGMSAFEYHGTDPRFNRVFNEGMKNHSIIITKKLLESYKGFEGLGTLVDVGGGVGATVAAITAHYPTIKGINFDLPHVISEAPPFPGVTHVGGDMFQKVPSGDAILMKWILHDWSDEHCATLLKNCYDALPAHGKVVLVECILPVNPEATPKAQSVFHVDMIMLAHNPGGRERYEREFEALAKGAGFAAMKTTYIYANAWAIEFTK | 118.41 µM | – | – |
| TaOMT2 (Triticum aestivum; D263N) (protein) MGSIAAGADEDACMYALQLVSSSILPMTLKNAIELGLLETLMAAGGKFLTPAEVAAKLPSAANPEAPDMVDRMLRLLASYNVVSCRTEDGKDGRLSRRYGAAPVCKYLTPNEDGVSMSALALMNQDKVLMESWYYLKDAVLDGGIPFNKAYGMSAFEYHGTDPRFNRVFNEGMKNHSIIITKKLLESYKGFEGLGTLVDVGGGVGATVAAITAHYPTIKGINFDLPHVISEAPPFPGVTHVGGDMFQKVPSGDAILMKWILHNWSDEHCATLLKNCYDALPAHGKVVLVECILPVNPEATPKAQGVFHVDMIMLAHNPGGRERYEREFEALAKGAGFAAMKTTYIYANAWAIEFTK | 128.2 µM | – | – |
| TaOMT2 (Triticum aestivum) (protein, full length, 356 residues, vector pET200/D-TOPO, expressed in E. coli BL21 (DE3), Ni-NTA purified, tag removal not mentioned; dimer in solution (monomers also active)) MGSIAAGADEDACMYALQLVSSSILPMTLKNAIELGLLETLMAAGGKFLTPAEVAAKLPSAANPEAPDMVDRMLRLLASYNVVSCRTEDGKDGRLSRRYGAAPVCKYLTPNEDGVSMSALALMNQDKVLMESWYYLKDAVLDGGIPFNKAYGMSAFEYHGTDPRFNRVFNEGMKNHSIIITKKLLESYKGFEGLGTLVDVGGGVGATVAAITAHYPTIKGINFDLPHVISEAPPFPGVTHVGGDMFQKVPSGDAILMKWILHDWSDEHCATLLKNCYDALPAHGKVVLVECILPVNPEATPKAQGVFHVDMIMLAHNPGGRERYEREFEALAKGAGFAAMKTTYIYANAWAIEFTK | – | 59.51 ± 0.79 µM | 270.98 ± 11.51 µM |
| TaOMT2 (Triticum aestivum; V309I) (protein, full length, 356 residues, vector pET200/D-TOPO, expressed in E. coli BL21 (DE3), Ni-NTA purified, tag removal not mentioned; dimer in solution (monomers also active)) MGSIAAGADEDACMYALQLVSSSILPMTLKNAIELGLLETLMAAGGKFLTPAEVAAKLPSAANPEAPDMVDRMLRLLASYNVVSCRTEDGKDGRLSRRYGAAPVCKYLTPNEDGVSMSALALMNQDKVLMESWYYLKDAVLDGGIPFNKAYGMSAFEYHGTDPRFNRVFNEGMKNHSIIITKKLLESYKGFEGLGTLVDVGGGVGATVAAITAHYPTIKGINFDLPHVISEAPPFPGVTHVGGDMFQKVPSGDAILMKWILHDWSDEHCATLLKNCYDALPAHGKVVLVECILPVNPEATPKAQGVFHIDMIMLAHNPGGRERYEREFEALAKGAGFAAMKTTYIYANAWAIEFTK | – | 101.08 ± 9.68 µM | 18.24 ± 1.72 µM |
